Measurements taken from paper PMC11417369, “DNA sequence and chromatin differentiate sequence-specific transcription factor binding in the human malaria parasite Plasmodium falciparum”.
Substitutions are numbered along the chain they refer to.

T1: AP2-LT D1 (Plasmodium falciparum, UniProt Q8IAM1 2520-2577)
T1 sequence: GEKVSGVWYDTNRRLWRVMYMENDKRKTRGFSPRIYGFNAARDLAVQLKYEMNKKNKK

T2: AP2-G D1 (Plasmodium falciparum, UniProt Q8I5I9 2123-2245)
T2 sequence: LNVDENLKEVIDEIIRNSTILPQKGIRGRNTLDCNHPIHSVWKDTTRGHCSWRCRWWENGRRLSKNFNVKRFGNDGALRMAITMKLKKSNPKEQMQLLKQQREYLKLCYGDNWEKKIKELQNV

B1: CACACA_site2202 (dsDNA)
DNA 1: CGCACCCACAGACACACACACACATATATATATATA
DNA 2: TATATATATATATGTGTGTGTGTGTCTGTGGGTGCG
B2: CACACA_site8012 (dsDNA)
DNA 1: ACATCAAGCAGACACACACACACACCCACCCACCCA
DNA 2: TGGGTGGGTGGGTGTGTGTGTGTGTCTGCTTGATGT
B3: CACACA_site6446 (dsDNA)
DNA 1: TACACGCATAGACACACACACACACGCATATAAATA
DNA 2: TATTTATATGCGTGTGTGTGTGTGTCTATGCGTGTA
B4: CACACA_site5252 (dsDNA)
DNA 1: AACACGCGCGGACACACACACACACCCACATATATA
DNA 2: TATATATGTGGGTGTGTGTGTGTGTCCGCGCGTGTT
B5: CACACA_site4355 (dsDNA)
DNA 1: B4 DNA 1 with A1C, C5G, G6A, G8A
DNA 2: B4 DNA 2 with C29T, C31T, G32C, T36G
B6: CACACA_site8840 (dsDNA)
DNA 1: ATAAATAAAGGACACACACACACACTAATAAAAAAA
DNA 2: TTTTTTTATTAGTGTGTGTGTGTGTCCTTTATTTAT
B7: CACACA_site5248 (dsDNA)
DNA 1: CACAGACACGGACACACACACATATATATATATATA
DNA 2: TATATATATATATATGTGTGTGTGTCCGTGTCTGTG
B8: CACACA_site3394 (dsDNA)
DNA 1: B7 DNA 1 with C1A, C9G, G10A, G11A
DNA 2: B7 DNA 2 with C26T, C27T, G28C, G36T
B9: CACACA_site5894 (dsDNA)
DNA 1: B7 DNA 1 with C1A, C3A, A6G, C7A
DNA 2: B7 DNA 2 with G30T, T31C, G34T, G36T
B10: CACACA_site5883 (dsDNA)
DNA 1: B7 DNA 1 with C1T, G5T
DNA 2: B7 DNA 2 with C32A, G36A
B11: CACACA_site5249 (dsDNA)
DNA 1: B1 DNA 1 with C6A, C7G, A10G
DNA 2: B1 DNA 2 with T27C, G30C, G31T
B12: CACACA_site4488 (dsDNA)
DNA 1: B7 DNA 1 with C1T, G5A, C7T, C9T
DNA 2: B7 DNA 2 with G28A, G30A, C32T, G36A
B13: CACACA_site2919 (dsDNA)
DNA 1: TACATACAGAAACACACACACACATATATATATATA
DNA 2: TATATATATATATGTGTGTGTGTGTTTCTGTATGTA
B14: CACACA_site8067 (dsDNA)
DNA 1: AACAAATACAGACACACACACACACTAATAAAAAAA
DNA 2: TTTTTTTATTAGTGTGTGTGTGTGTCTGTATTTGTT
B15: CACACA_site6426 (dsDNA)
DNA 1: GGCATACACGAACACACACACACACGCACATATATA
DNA 2: TATATATGTGCGTGTGTGTGTGTGTTCGTGTATGCC
B16: CACACA_site5884 (dsDNA)
DNA 1: AATACATACGGACACACACACACATATATATATATA
DNA 2: TATATATATATATGTGTGTGTGTGTCCGTATGTATT
B17: CACACA_site5272 (dsDNA)
DNA 1: B16 DNA 1 with A1T, T7G, C9T, C23T
DNA 2: B16 DNA 2 with G14A, G28A, A30C, T36A
B18: CACACA_site906 (dsDNA)
DNA 1: B16 DNA 1 with T3A, A4G, C5G, G10A
DNA 2: B16 DNA 2 with C27T, G32C, T33C, A34T
B19: CACACA_site7645 (dsDNA)
DNA 1: AAAAAAAATACATACACACACACACGCACATATATA
DNA 2: TATATATGTGCGTGTGTGTGTGTATGTATTTTTTTT
B20: CACACA_site3541 (dsDNA)
DNA 1: GGAATAACCAGACACACACACACATATATATATATA
DNA 2: TATATATATATATGTGTGTGTGTGTCTGGTTATTCC
B21: CACACA_site5247 (dsDNA)
DNA 1: AGGATATGCGGACACACACACATATATATATATATA
DNA 2: TATATATATATATATGTGTGTGTGTCCGCATATCCT
B22: XGTACX_negctrl_site600 (dsDNA)
DNA 1: TTGAAATATACGTAAGTAAATTTCATTTGGTTGTGT
DNA 2: ACACAACCAAATGAAATTTACTTACGTATATTTCAA
B23: XGTACX_negctrl_site394 (dsDNA)
DNA 1: AGGTGAAAAATATATAATAATGTAACAAAAAAAAAT
DNA 2: ATTTTTTTTTGTTACATTATTATATATTTTTCACCT
B24: XGTACX_negctrl_site191 (dsDNA)
DNA 1: TTTTTAAAAAATAAGAAAAAATAAATATATTACAAA
DNA 2: TTTGTAATATATTTATTTTTTCTTATTTTTTAAAAA
B25: XGTACX_negctrl_site35 (dsDNA)
DNA 1: TTTTGACTAATATAATATGTTAAGAATTAATAAATA
DNA 2: TATTTATTAATTCTTAACATATTATATTAGTCAAAA
B26: XGTACX_negctrl_site385 (dsDNA)
DNA 1: TACTTCTCATTTGTTGTTGTATTTTAGGCATACCCT
DNA 2: AGGGTATGCCTAAAATACAACAACAAATGAGAAGTA
B27: XGTACX_negctrl_site244 (dsDNA)
DNA 1: AAAAATATGAAGACACAATATAGAAATAAAAATATA
DNA 2: TATATTTTTATTTCTATATTGTGTCTTCATATTTTT
B28: XGTACX_negctrl_site317 (dsDNA)
DNA 1: TTATATTCTTTTCTCTTTCTACTTTTTTTTTTTTTT
DNA 2: AAAAAAAAAAAAAAGTAGAAAGAGAAAAGAATATAA
B29: XGTACX_negctrl_site39 (dsDNA)
DNA 1: TTTTTAATTATCTTTTCCCATGGTTTCTCCGTTTTT
DNA 2: AAAAACGGAGAAACCATGGGAAAAGATAATTAAAAA
B30: XGTACX_negctrl_site451 (dsDNA)
DNA 1: AACAAATAAAAAAAAATAAAAATAAAAATAAAAAAA
DNA 2: TTTTTTTATTTTTATTTTTATTTTTTTTTATTTGTT
B31: XGTACX_negctrl_site343 (dsDNA)
DNA 1: B30 DNA 1 with C3T, T17A, T23A, T29A
DNA 2: B30 DNA 2 with A8T, A14T, A20T, G34A
B32: XGTACX_negctrl_site26 (dsDNA)
DNA 1: TATAATTTTTTTGAATTATATATATATATATATAAT
DNA 2: ATTATATATATATATATATAATTCAAAAAAATTATA
B33: XGTACX_negctrl_site183 (dsDNA)
DNA 1: TATTTTTCTTTTTAAAAATATATCACATGAACATTA
DNA 2: TAATGTTCATGTGATATATTTTTAAAAAGAAAAATA
B34: XGTACX_negctrl_site59 (dsDNA)
DNA 1: AATATTACGTGTTTGGTATTTTTCGATGTTGGCAGG
DNA 2: CCTGCCAACATCGAAAAATACCAAACACGTAATATT
B35: XGTACX_negctrl_site521 (dsDNA)
DNA 1: ATGTTATAAATCTTAATATATATATGCAAAAGAGAA
DNA 2: TTCTCTTTTGCATATATATATTAAGATTTATAACAT
B36: XGTACX_negctrl_site604 (dsDNA)
DNA 1: ATAAATCGATAAAATATATGCTACATGAATAAATAA
DNA 2: TTATTTATTCATGTAGCATATATTTTATCGATTTAT
B37: XGTACX_negctrl_site493 (dsDNA)
DNA 1: CATATATAAATATAAATATATATATATATATATATG
DNA 2: B37 DNA 1 with A9T, A15T, A22T, A28T
B38: XGTACX_negctrl_site591 (dsDNA)
DNA 1: TTTTTATATAACCTTCTTAATTCTTTTTTTTTTTTT
DNA 2: AAAAAAAAAAAAAGAATTAAGAAGGTTATATAAAAA
B39: XGTACX_negctrl_site541 (dsDNA)
DNA 1: TTGTCAAAAATTACACACATAAATGAATAAATAAAT
DNA 2: ATTTATTTATTCATTTATGTGTGTAATTTTTGACAA
B40: XGTACX_negctrl_site291 (dsDNA)
DNA 1: TTTTTTATATTTAAACTTCACATGGTTTTCATTTAT
DNA 2: ATAAATGAAAACCATGTGAAGTTTAAATATAAAAAA
B41: XGTACX_negctrl_site580 (dsDNA)
DNA 1: ATACAAATTAAGCCTCAAGTTCTTTTTTTTAACATA
DNA 2: TATGTTAAAAAAAAGAACTTGAGGCTTAATTTGTAT
B42: XGTACX_negctrl_site369 (dsDNA)
DNA 1: TTTTTTTTTAATAAAATTATAATAAATATGAAATTA
DNA 2: TAATTTCATATTTATTATAATTTTATTAAAAAAAAA

Biological target: T1, AP2-LT D1
Assay: gcPBM; about 25 ug protein; PBS, 1% milk, 0.2 mg/ml BSA, salmon testes DNA, 0.03% Triton X-100
Details: tags: N-terminal GST (pGEX-4T-1), kept; label: surface-attached array probe

Binder | binding signal
B1 | 10.8 ln median PBM intensity, better of two orientations
B2 | 10.8 ln median PBM intensity, better of two orientations
B3 | 10.7 ln median PBM intensity, better of two orientations
B4 | 10.7 ln median PBM intensity, better of two orientations
B5 | 10.7 ln median PBM intensity, better of two orientations
B6 | 10.7 ln median PBM intensity, better of two orientations
B7 | 10.9 ln median PBM intensity, better of two orientations
B8 | 10.7 ln median PBM intensity, better of two orientations
B9 | 10.7 ln median PBM intensity, better of two orientations
B10 | 10.8 ln median PBM intensity, better of two orientations
B11 | 10.7 ln median PBM intensity, better of two orientations
B12 | 10.7 ln median PBM intensity, better of two orientations
B13 | 10.8 ln median PBM intensity, better of two orientations
B14 | 10.8 ln median PBM intensity, better of two orientations
B15 | 10.7 ln median PBM intensity, better of two orientations
B16 | 10.7 ln median PBM intensity, better of two orientations
B17 | 10.7 ln median PBM intensity, better of two orientations
B18 | 10.7 ln median PBM intensity, better of two orientations
B19 | 10.7 ln median PBM intensity, better of two orientations
B20 | 10.7 ln median PBM intensity, better of two orientations
B21 | 10.7 ln median PBM intensity, better of two orientations

Biological target: T2, AP2-G D1
Assay: as above
Details: tags: N-terminal GST (pGEX-4T-1), kept; label: surface-attached array probe

Binder | binding signal
B22 | 9.84 ln median PBM intensity, better of two orientations
B23 | 9.88 ln median PBM intensity, better of two orientations
B24 | 9.86 ln median PBM intensity, better of two orientations
B25 | 9.84 ln median PBM intensity, better of two orientations
B26 | 9.85 ln median PBM intensity, better of two orientations
B27 | 9.84 ln median PBM intensity, better of two orientations
B28 | 9.85 ln median PBM intensity, better of two orientations
B29 | 9.84 ln median PBM intensity, better of two orientations
B30 | 9.85 ln median PBM intensity, better of two orientations
B31 | 9.85 ln median PBM intensity, better of two orientations
B32 | 9.84 ln median PBM intensity, better of two orientations
B33 | 9.84 ln median PBM intensity, better of two orientations
B34 | 9.87 ln median PBM intensity, better of two orientations
B35 | 9.88 ln median PBM intensity, better of two orientations
B36 | 9.88 ln median PBM intensity, better of two orientations
B37 | 9.85 ln median PBM intensity, better of two orientations
B38 | 9.85 ln median PBM intensity, better of two orientations
B39 | 9.88 ln median PBM intensity, better of two orientations
B40 | 9.85 ln median PBM intensity, better of two orientations
B41 | 9.88 ln median PBM intensity, better of two orientations
B42 | 9.84 ln median PBM intensity, better of two orientations
